Experimental data: patent US20190016818A1, “ANTIBODIES AGAINST GLYPICAN-3 AND THEIR USES IN CANCER DIAGNOSIS AND TREATMENT” (LA JOLLA BIOLOGICS, INC., priority 2015, published 2019)

Experiments:
[1] = test system: HepG2 and HuH-7 ectopic xenografts; conditions: cited from earlier work
Hep3B hepatoma cells = test: Hep3B xenograft animal model with GES1 IgG; type: in vivo, NOD-SCID mice; conditions: 200 mg/Kg sorafenib orally
Description: GES1 scFv antibody was humanized to obtain humanized IgG antibody (GES1 humanized scFv antibody) and a xenograft animal model was conducted. Hep3B hepatoma cells were cloned to NOD-SCID mice. After the tumors were generated, 1 mg/Kg and 5 mg/Kg of GES1 IgG were i.v. injected into the mice once a week. Another group of the mice were orally administered with 200 mg/Kg sorafenic.

HepG2 cells [2] = test: Proliferation (MTT) assay; type: cell-based, human
Description: A volume of 100 μl DMEM medium containing 5×10^3 HepG2, Hep3B, wherein cells were seeded onto 96-well plates. […] Thereafter, 10 μl of 3-[4,5-dimethylthiazol-2-yl]-2,5-diphenyltetrazolium bromide (MTT; 10 mg/ml) were added to determine the number of surviving cells. The supernatant was removed after 3 hr of incubation, and formazan crystals that had been developed were dissolved by adding of 100 μl acidified 2-propanol/well (0.04 N HCl). Extinction was measured by an automated microtiter plate reader at 540 nm. Unrelated anti-snake venom antibodies (neg) were included in control experiments. […] HepG2 cells were cultured in the medium containing G5S1, GES1, GES6 or control scFv antibodies at final concentrations of 0.1 μM for 1-6 days.

HepG2 cells [3] = test: Soft agar colony formation assay, HepG2; type: cell-based, human; conditions: 0.5 μM scFv, 4 weeks
Description: (§1) To determine the clonogenicity of HepG2, Hep3B, cells, 5×10^5 cells were pre-incubated in 2 ml DMEM medium containing anti-GPC3 antibodies at concentrations of 0.5-5 uM for 48 hr. Thereafter, cells were harvested, counted and transferred into semi-solid medium supplemented with 0.8% DMEM-methylcellulose and 30% FBS. Finally, 1 ml of the semi-solid medium containing 5×10^3 individual type of cell was plated onto 3.5 cm Petri-dishes. Triplicated Petri-dishes per treatment protocol will be cultivated for 5-7 days under standard conditions. Colony formation (clusters of >30 cells) will be visualized by staining with crystal violet and scored by an inverted microscope. […] The effect of GPC3 scFv on anchorage independent growth of HepG2 and Hep3B cells was explored. Hepatoma cells were treated with 0.5 μM of G5S1, GES1 or α-RTS6 (neg) scFv antibodies for 1 hr and suspended in medium containing 0.4% low melting agarose and plated onto solidified 0.9% agarose in medium at a density of 1×10^5 cells per dish. After incubating for 4 weeks, the number of colonies was counted and recorded. […] The exact reason for the distinct inhibition on 2 cell lines is presently not known.

Hep3B cells [4] = test: Soft agar colony formation assay, Hep3B; type: cell-based, human; conditions: 0.5 μM scFv, 4 weeks
Description: as §1

HepG2 cells [5] = test: Cell cycle analysis (propidium iodide, FACS); type: cell-based, human
Description: Fixed cells were stained with propidium iodide and analyzed by FACS. The cell-cycle distribution of different phases was analyzed with FlowJo v 9.0. FIGS. 12 A, B and C show the results of cell cycle analysis. After treated with G5S1, GES1 or α-RTS6 (neg) scFv antibodies for 48 hrs, the adherent HepG2 cells were detached, washed, and exposed to 70% ethanol on 4° C. overnight. After washing, cells were incubated with […] propidium iodide and […] RNaseA. FACS was carried out and data were statistically analyzed by FlowJo software.

Hep3B xenograft = test: Tumor xenograft model, Ki-67 immunohistochemistry of tumor tissue; type: in vivo, NOD-SCID mice; conditions: 800 ug/mouse/per time i.v.; compared to untreated groups
Description: NOD-SCID mice were used. Briefly, 4-week-old female […] mice were injected subcutaneously with 4×10^6 of HepG2 and Hep3B cancer cells at a single dorsal site. At day 14, tumor-bearing mice were randomized into experimental groups (5 per group) and treated with anti-GPC3 antibodies and positive control with sorafenib accordingly. 400 ug or 800 ug of antibodies were given through intravenous (i.v.) injection every 3 days for 3 weeks. Tumor size was measured every 2 days with calipers until animals are sacrificed. At the time of sacrifice, tumors were dissected and weighted.
Tissue sections from xenograft tumor tissues in mice were de-waxed in xylene and rehydrated through graded alcohols. The antigen retrieval was carried out by heating the rehydrated tissues in 10 mM sodium citrate (pH 6.0) for 20 min. After washing with buffer containing 10 mM Tris-HCl (pH 7.4) and 150 mM sodium chloride, the sections were treated with 3% hydrogen peroxide for 5 min. Anti-Ki-67 antibodies (commercial polyclonal antibody) was be applied for 1 hr at room temperature. Optimal horseradish peroxidase-conjugated secondary antibodies and diaminobenzidine were added sequentially to detect the Ki-67 proliferation marker expression in the examined tissues. The slides were counterstained with GM hematoxylin solution. […]

GPC3 in Hep3B cells = target: T1, GPC3 in Hep3B cells (Homo sapiens, UniProt P51654); test: Immunoprecipitation assay, Hep3B cell lysate; type: binding; conditions: Hep3B total cell lysate; data very preliminary
T1 construct: endogenous in cells; host or cells: Hep3B
Description: (§2) Antibody beads were prepared by covalently linking 100 ul of Ni-NTA Sepharose (Amersham Biosciences) and 1 mg of anti-GPC3 scFv antibodies with 20 mM dimethyl pimelimidate. Then, 500 ul of HepG2 and Hep3B cell lysates were be mixed with 25 ul of antibody beads and incubated for 2 hr at 4° C. After extensive washing with PBST, antibody beads will be resuspended in 50 ul of SDS-PAGE loading buffer, boiled for 5 min, and subsequently subjected to western blotting analysis. […] The total cell lysates of Hep3B and HepG2 were incubated with a mixture of his-beads and G5S1, GES1, GES6 or 70SC control scFv antibodies individually. After washing, the his-beads complex was subjected to SDS-PAGE and western blot analysis. […] By contrast, the protein in HepG2 cells was precipitated by GES1, G5S1 and GES6 scFv antibodies. However, the data were very preliminary and need further verification.

[6] = test system: GPC3-positive HepG2 cells and Hep 3B cells; test: Immunofluorescence staining binding analysis; type: cell-based, human; conditions: Hep 3B cells (FIG. 9A) and Hep G2 cells (FIG. 9B)
Description: HepG2, Hep3B, cells (2×10^5 cells/ml) were seeded on cover glass and fixed by incubating with equal volume of 8% freshly prepared ice-cold paraformaldehyde on ice for 15 min. After fixing, the cells were dehydrated in a sequential treatment of 70%, 95% and 99% methanol and rehydrated with 95% and 70% methanol. The slides were then overlaid with blocking buffer (1% BSA in 1×PBS) at room temperature (RT) for 1 hr. Following washing with 1×PBS, specific monoclonal mouse or scFv antibodies were incubated with cells at RT for one additional hr. Finally, their binding to GPC3 protein was detected by mouse anti-HA antibodies, followed by FITC-conjugated goat anti-mouse antibodies. Nuclei were counterstained with PI solution in parallel. The slides were examined using a Confocal Spectral Microscope Imaging System (TCS SP5, Leica). […] The partially purified scFv antibodies were examined for their binding activity to GPC3-positive HepG2 cells and Hep 3B cells.

GPC3 [7] = target: T2, GPC3 (Homo sapiens, UniProt P51654); test: ELISA binding to commercially available GPC3 immobilized on plate wells; set-up: analysis of commercial GPC3_extracellular domain (ECD) and truncated (C185) proteins; purchased; conditions: partially purified scFv
Description: (§3) Nitrocellulose membranes were blocked with 5% skim milk in TBST for 1 hr. Polyclonal goat anti-chicken IgY light chain antibodies were added at 1:5000 dilution and incubated for an additional hr. The membranes were washed with TBST three times and the bound antibodies were detected by adding horseradish peroxidase (HRP)-conjugated donkey anti-goat Ig antibodies at 1:3000 dilutions. After three washings, the membranes were developed with diaminobenzidine (DAB) substrate until the desired intensity was reached. The IgY antibodies or the E. coli-expressed scFv antibodies were purified and incubated with the purified GPC3 protein or cellular lysates of GPC3-positive HepG2 and Hep3B cells immobilized on nitrocellulose membranes or ELISA plate wells. Their binding was subsequently detected by adding goat anti-mouse IgG or anti-chicken IgY light chain followed by HRP-conjugated donkey anti-goat Ig antibodies as described above.
HepG2, Hep3B, cells (2×10^5 cells/ml) was seeded on cover glass and fixed by incubating with equal volume of 8% freshly prepared ice-cold paraformaldehyde on ice for 15 min. After fixing, the cells were dehydrated in a sequential treatment of 70%, 95% and 99% methanol and rehydrated with 95% and 70% methanol. […] Finally, their binding to GPC3 protein was detected by mouse anti-HA antibodies, followed by FITC-conjugated goat anti-mouse antibodies. […]

Hep3B cells [8] = test: Cell migration (wounded monolayer) assay; type: cell-based, human; conditions: Hep3B monolayers wounded, 0.5 uM scFv, 24 hr
Description: For cell migration assays, 1×10^3 cells were incubated with anti-GPC3 antibodies at concentrations of 1 to 200 μg/ml for 48 hr before being transferred into a transwell migration system. The cells were plated onto a polycarbonate filter membrane with a pore size of 8 μm (upper layer) and incubated for different time interval at 37° C. in 5% CO2 incubator. Serum free medium containing 0.5 mM EDTA was used for washing off the cells from the lower part of the membrane to lower wells. The cells in the lower wells were collected with centrifugation at 3000 g for 5 min and perform direct cell counting under microscope. The mean growth rate (MGR) of cells after migration through the polycarbonate filter was determined by the equation: MGR=log 2 Nt−log2 N0/t, with N0 as initial cell number, Nt as final cell number and t as time period of cell incubation in days. […] To explore whether the GPC3 protein is essential for cell migration, Hep3B cells were cultured until confluence. The monolayers were wounded, cultured with medium containing 0.5 uM of G5 S1 or GES1 and two controls (NC-70sc or NC-spE) scFv antibodies and analyzed after 24, hr. […] The effect of G5S1 scFv was minimal and reached to the basal level obtained in medium without any scFv antibody.

GPC3 [9] = target: T2, GPC3; test: Western blot of GPC3 extracellular domain protein and hepatoma cell lysates; type: binding; set-up: purchased; conditions: commercial GPC3 extracellular domain protein under reducing condition; lysates of hepatoma cell lines
Description: as §3

[10] = test system: GPC3-positive Hep3B, HepG2 and HepJ5 cells; test: Flow cytometry binding analysis; type: cell-based, human; conditions: 100 μg/ml
Description: A total of 2×10^6 HepG2, Hep3B, cells were harvested and fixed with 2% paraformaldehyde as described previously with minor modification (Leu et al., 2010). The GPC3 molecule expressed in these […] cells were detected by adding purified chicken scFv antibodies, followed by mouse anti-HA (1:200) and FITC-conjugated goat anti-mouse antibodies (1:200). The results were analyzed using the FACScan flow cytometer Negative controls were performed by omitting the primary scFv antibodies, while positive controls were performed using commercial polyclonal anti-human GPC3 antibodies (1:200) instead of home-made chicken anti-GPC3 scFv antibodies. […] The partially purified scFv antibodies were examined for their binding activity to GPC3-positive Hep3B, HepG2 and HepJ5 cells.

GPC3 in HepG2 cells = GPC3 in HepG2 cells (Homo sapiens, UniProt P51654); test: Immunoprecipitation assay, HepG2 cell lysate; type: binding; set-up: endogenous in cells; host or cells: HepG2; conditions: HepG2 total cell lysate; data very preliminary
Description: as §2

Q: Which “efficacy against the HepG2 xenograft relative to GC33” value [1] does the source give for hGC33: Humanized GC33 here?
A: as effective as GC33

Q: Which tumor growth inhibition (Hep3B hepatoma cells) does the source give for CNC(=O)c1cc(Oc2ccc(NC(=O)Nc3ccc(Cl)c(C(F)(F)F)c3)cc2)ccn1 [sorafenib] here?
A: 48.8%

B1: GES1: chicken anti-GPC3 scFv antibody; heavy chain SEQ ID NO: 30, light chain SEQ ID NO: 38 (antibody, V domains shown)
VH: EVQLLESGGGLVQPGGSLRLSCAASGFTFSSFNMFWVRQAPGKGLEWVSWISSTGSRTKYADSVKGRFTISRDNSKNTLYLQMNSLRAEDTATYYCAKSASRGAGRIDAWGRGTLVTVSS
VL: ALTQPPSASGSPGQSITISCTGTGGSYGWYQQHAGKAPKLVIYNNNKRPSGVPDRFSGSKSGNTASLTVSGLQTDDEAVYYCGSRDSSYFGIFGGGTKLTVL
modifications: scFv linker
Q: What does the source list for B1?
A: inhibition of cell proliferation, concentration dependence (HepG2 cells [2]; 0, 0.5, 1, 2, 4 and 8 μM for 3 days): inhibited the cell proliferation in a dosage-dependent manner; suppression on cell proliferation (HepG2 cells [2]; HepG2 cells, 0.1 μM, day 6): approximately 60%; inhibitory effect on colony formation (HepG2 cells [3]): significant inhibitory effort on colony formation; inhibitory effect on colony formation (Hep3B cells [4]): not as obvious; cell cycle arrest (HepG2 cells [5]; 0.5 μM, 48 hrs): arrested in G1 phase; cell population in subG1 stage (HepG2 cells [5]; treated 48 hrs): 28.8%; Ki-67 expression in tumor sections (Hep3B xenograft): reduced level of Ki-67 expression; precipitation of protein with predicted molecular weight of GPC3 (GPC3 in Hep3B cells): precipitated; binding signal to cell surface (immunofluorescence) [6]: various but significant binding signal; binding activity to GPC3 on ELISA (GPC3 [7]): reacted significantly with GPC3; effect on cell migration (Hep3B cells [8]): partial inhibitory effect; fragment of GPC3 identified on western blot (GPC3 [9]): can identify C-terminus fragment of GPC3 and GPC3 in cellular lysates; binding signal to hepatoma cells (flow cytometry) [10]: various but significant binding signal; precipitation of protein with predicted molecular weight of GPC3 (GPC3 in HepG2 cells): precipitated
